According to the DeepSol protein solubility set:

Test: soluble on expression in E. coli; label from the status in PepcDB or PDB records

Sequence | soluble on expression in E. coli
MAHHHHHHMPQCGTEKHVSAPPSYTGPFVAVVVDLDGTILDDNHRVSDVTKATLYEVASCGVHIIIATGRPREGVAAIEQELNSYFRCNSRVPGRATSLAEVKGFHLVASNGARIYNTTGELISAESIDNSVVRAIYERVTESNINANSEDSMLVSVHQTGAWWVNNVLPEEWLRRKYGTLPEVRQNLSDFPTDGVGKICLRSFNEGTLRTFQKELDTKYEHYITTVMTSDHCLDIMPKGVSKASALRMVGEILNFEPHRDAIAFGDSLNDRDMLESVAKGCIMKNGKNELKELLPHVEVVGCNEEDGVAHKLREVFLLS | not soluble
MAHHHHHHMPRGGHKGGLFPVSGIKWGMNERIKKRGLYHNRREDILTPRWGYRYENENKKYLPDGSSKSFDIDSSRAWPVDKAQWKYYYNINESRYLWPSICANNPEIKNYILNIIENTDTYFSGIGLEQVSNERKNKNLKKDYTNNSYYKNNYLYNLVHELNNTIYPQIEINLNNNLKRGRIQKLYDIIKEENIWKTTQKIKTPESENVFPYVDDNATLIRELPLSEILYTKSNLRLKVRRHPKWMNVQFLKKKVKIPYLYR | not soluble
MAHHHHHHMPSEYHSSLADVSPRLSSRQRCSVRAGLSSTPRHAQGRRHLDPHHFTNLTDDAKRAEGRLGRAHVASSEQQKRADAYYATKQATVAQPPGAECNLYLKSYYYTPLSKQETPSPPPRPTTGFRADAQSTSFQLAEARLRKIKREHPQYEEEVTRALQQQHGDYSIVSTEQKISRRIAVEEYADGTNARMAQIEASTKYRGTPDLGSPAPAIKRSVPYALSEECPPRADTQLSCTSHVRLYPGCGRSSFPPETPVKPRARHLYDGPVPYDTTAASGEAYPSPPAVGERCNIYAKPTLVHVDERRHRDCVEDADSLAMKRARARSGARASQERPDFIFGPGPAPQPRPPSLRHHTEARWKAQERNAENRRTGRALYPQSHRSTSLW | not soluble
MAHHHHHHMPSGERRGRVGPVRFRTFLRNTVLDVMRSRGWLETDSDLGWDLFWADVGWIREVHDHVRLDDVQRINHFRNHFELTRKDFMVKNLKRMRKSLEREGRLEEATEFDFFPVTFSLPQDYGMFETEFRRQPNAIWIMKPPAKAQGKGIFLFSKISQIAEWRKDYKQRQVGAVGEKAGGPYGAEQVEPYLAQRYIENPHLVGGKKYDLRVYVLVTCYSPLTVWLHRTGFARFCHQRFSLRDIENTFIHVTNVAVQKTNPKYTPSSGCKYGLRNLRQYITASRGVETAQKLFDDIQNMILRSLHAVQKIIVQDKHCFELYGYDIMVDNDLHPWLIETNASPSLSAETPADYHLKFNMLEDMFSVIDIEKRRTGDEIRVGGFDLIWKNGPVGPACRGDAKGGGVTQSFLGCANELEIPISHMRMPPRLQQMDSSERLLT | not soluble
MAHHHHHHMPTPRETVVAFLTQACCGTIVALHRMGGMEVMLYKEQLVVMLTRYFNSCWNSLLSGDDPYVVESFNMMKHDNPGCVMRYLFSVGTSVLPDEPPQEIARYSPEDTDDLEAARVTISETLQQLLAERIAVDPFQHSCEGLSLSAERTAWSEKGCPPQNFFEIS | soluble
MAHHHHHHMPTSSGVDQAKLREVIRVLKSVGHVGMAESLEVEWGMKPNTAAHAKNAKKGRKSLPHKSRESSKARGNSFPSLSSIAVAPSPLQVTSQSRFVVTCIGDEEDLWSPDEDPADAKRCIAPLFDYGAGLLRDHYAEYAAHPVSFVSVHPYEKQQPPSNLPWRHFELKVFYEAGKTGSEEKKEFELVKGDLIGGRYHVDAPIDAATFSRTVRCYDEQTGQPVCLKIIRNSKTFLDQGLDELRALTCVNDAGDADACCVVRLLDYFYFREHLVLVTELLFDNLYEYARKLDIVERCAYFTLARLQRIVRQVLTALKLIHSVNLIHCDIKPENIAFKSVSDCDVKVLDLGSSCYMTDTLSSYVQSRSYRAPEVILGCKYGPAVDIWSLGATAAELATGTVLFNVESVPTMLASIASVCGPIPAEMLQEGRNTSLYVTQHGAFYDYEDEQLVFHFPSEPPDAAVLFGFDDHDYVDFVRLCLTLDAALRPSAAQLLDHPFLTKTYTD | not soluble
MAHHHHHHMPVSHHEGCGCKNSDEVLKGGEFLLKYINIDKVTALNEKTHGSCRKILKSYDNRLSPDNCESDVDHELIINIPFNSPCKISSLFLIGGEEGTYPRKIKIFSNREDIDFGNINDFKCVQELELSQDFHGSIEYPLKVTSLFNVSYLTLYFYENYGADTTKIFYIGLKGVGTNYIRKAVETVYEASPNLSDHKIEGSSKAAHFRFDAF | soluble
MAHHHHHHMQDEHKFNAEDRRRAPPPNTPERALDYHERTNDDKLIAHASQVNHLSKPRHRNCLTEFIIVETPVVSFLVDSSDPSLCLLRRSGRQGTKNEEKGVH | soluble
MAHHHHHHMQTATAPFILRSLYKDAYISDMQIARPITELMMNTIGAQLTNKYDTHIPAIACSLYTLFSMSRVQTLGQEFCDLLPVVKAHPWQPVGPARVLLLAVLQLVEPTAVFVVARKLFPDLSTADVEEVLRKAVLCALFLFERFGTLPHRIARVRFLSLKPSRTLQDSDGAPGSYLVLGLVLLVELVVRLWRYSKERTSREAKRSTEAAVITSSDEDAEDARSGKCMLCLSNRKCPTATNCGHIFCWRCIAEWIQSNPQEAVCPFCRQHITTQSLVPLYFYVAKEPPRVGTATDAAAPPAA | soluble
MAHHHHHHMREARERARIAEAEADSAMEAADRAILEELLRKDEEERRAAAEREAAARRAAEERAAAERLKAEDEARQAAEAARQRALEEERQRQRESAKQAAKSQLHDEPSTDVATSETVQISVRCPSGKHYDRRFLRSDLVDQLTFFVLTLDEVADATDASTVRFVTGFPPAPLVWREGETRFGDVKSLCPRAVVLLRRL | not soluble
MAHHHHHHMRFFKSDGTPYNSDMTDTLHGSEYVHRGGVEAIVEGVAAGQYAEHKPRAIMFVNKRPVEIIPQEENLLEVLEREGIRVPKFCYHPILSVAGNCRMCLVQVDGTQNLVVSCATVALPGMSIITDSRLVRDAREGNVELILINHPNDCPICEQATNCDLQNISMNYGTDIPRYKEDKRAVQDFYFDPQTRVVLNRCIHCTRCVRFLNEHAQDFNLGMIGRGGLSEISTFLDELEVKTDNNMPVSQLCPVGKLYLGDADENNAVADELDASEQAYAVATS | soluble
MAHHHHHHMRGQRSGKFAEYTATYAILKRIGLHQTVLIEKRDASVGYGVYVRDACDSGTPLLVVPSRHAFSLSTVQKLGARVRQEDLMQSPQLEILNRGVLSRLLGCTAGEWISLAWRLAIEHQRSLSPWWGWLNVLPRMQDFRTMEDESGRQCRLHRVQLLPYFIEVQGSMQEEICSAYEVLSEKNLMPSPNHFRWAVDVILTRSHRLPACWTNGEGSSVELGIIPFVDLVNGDDGGERRRNARVEVAFEVEELPRWYRDEFLQESERRHVNGEEALRRLLEEHFFALVALERDLTASEEVIMEYELVPWVTGALSHEDDLLLGRLLRYRF | not soluble
MAHHHHHHMRGQSSFSSIGEKPNALRDANDVTPMDTRHLHATCAAEEITHNTGANKKRQRGCRTPLMNAGDGSSIHSATSHQSSQAAHRTADAPSDISNRPTQSSGRAMELIRQRRSTVVRRITDIPALGQSHKEGERCGLINVGAVNVEAENAPSEQFSTFFSFFFFCRTHEQPMNEESCAALLVGILEVAPSTRPRHTRMLRSTLEMNRTPLEMVILGLQKIASRWETKQARPLTKEWLNQPIRSRTDWKERVVFRLVWITASRLFEIVALTPKNVTLEPNGTLILYWPVAPKTARADPHCASRFVGMRGQDAFDIIKLCMTL | not soluble
MAHHHHHHMRRGGTVVFQRHRVSGGISRANEMSAFARLRGGQQKTETDWVPTLLLSGETPPPIARPAETAAFFLASFDPFVFSYCMFDFPTILHHAGELSEHELLDYPGSMLMSPRSLFLQPTAHLRFGSERQQRMAVVLQSLLDRHDESERSPVPCARALGVQCPLFVPFLRGVCLCVETQHPFAPQAAYVFEELLASGFVSSTLYLDGTYVDRNRTLAQIVQLAAREFGSESALFTGLLLDEEHASPPETIAVGRLVAQTLAAADRRRLDWALKTRGAVRQRLVPQHGWTLGPSPSLLSTAQQ | soluble
MAHHHHHHMRRTGIRRVAPWVPPPRHDVKVTMPPPPGGEVGGSFGVSIGYSDRIACTPYWKRMALSNYALRMKENATRYPMSEHRPGEYDIRYLPKPYPCTIRNRPLLEVGEPRQIPSIQIPVIFLVNLYNEEKNSWFGRKYETVYVSRQFMREELMPQRYAIYATPEAYALLGLPVVDHGIHKEIPKTPREYEKLLERQKYDEERWKYSIEYLFRKYEAGPPELLDRAEDTWDGTEVLAVSSTAGAARHGEAVQRKGAIKHRKARKIKLF | not soluble
MAHHHHHHMRRTIRVFTGKLLWEDFTNTRLITINREKALNSMDLEMVKAMQRAYVHEPHAKGDSALFVVKGAGNKSFCAGGDIVSLKDRYDVAAEFFYTEYQMNYHILTMPNPQVSLWDGYVMGGGVGVSVHGRYRVASERAVFAMPETAIGLFPDVGASWFLPRLKMKGLGLYLGLTGARLKGADVAHTGLATHYVPSARFCELEERLCHIDDPAKVEACLEEFAVRDLPPFTLEPHRETIEKSFALEEKTTVEGIYESLSADGGEFAKGTINTLNRMAPTSLRVSLEMQKRGVKMTDPADVFRMDYIGSLRTHANSDFHEGVRALLVDKTKDPKWKPAKLSDVTADYVEAYFKPMGNQARQWHPTVPY | soluble
MAHHHHHHMSAEGLSRFFTENLTEEGRSDLNQWEAKTLEFAQRVNRDGCEGVAFITSGGTAVPLEVHAVRFVTNFSSGGRGAVLVEELLARGWACILLRSKTSQLPFRRLVDNMTTEQFFAELNAPQKSCDVSAAIEAYTKYKSRFLEIPYYTVVEYLYLFSLLTGTLSHRAECLRQTPMMLLAAAAVSDYYIPESRLSHHKMSGGDGLTIQFNNVPKILDLISEEWHGSSRAAPRYLITFKLETEEEQLKAKALRNLGLYRCDAVVANMLQNYRERVLVFWNGEEQNPTLLHRSPNGSVESLMIDHVLQRIKNHAKGCGMQYKLEGRRR | soluble
MAHHHHHHMSALKDKTGRFVVLDKNASNYESLVDQEMNNVYERVMKLDPNQVEFLQAFHEILYSLKPLFMEEPKYLPIIETLSEPERAIQFRVCWLDDNGVQRKNRCFRVQYNSALGPYKGGLRFHPSVNLSIVKFLGFEQIFKNSLTGLSMGGGKGGSDFDPKGKSDNEILKFCQAFMNELYRHIGPCTDVPAGDIGVGGREIGYLYGQYKKIVNSFNGTLTGKNVKWGGSNLRVEATGYGLVYFVLEVLKSLNIPVEKQTAVVSGSGNVALYCVQKLLHLNVKVLTLSDSNGYVYEPNGFTHENLEFLIDLKEEKKGRIKEYLNHSSTAKYFPNEKPWGVPCTLAFPCATQNEINLEDAKLLQKNGCILVGEGANMPSTVDAINLFKSNNIIYCPSKAANAGGVAISGLEMSQNFQFSHWTRETVDEKLKEIMRNIFIACSENALKYTKNKYDLQAGANIAGFLKVAESYIEQGCF | soluble
MAHHHHHHMSATPKQPSTATTSISSDEKWDHSLETLIRKSTIGFASGILPGLLLARSPAARSAIIALCTGVGSGIAYGEARYLFDHDIMFDKRHLIQVQVVGGSSSQQSGAQKSME | not soluble
MAHHHHHHMSDEDHDFAHQGGGDNASKTYPMAAGALKKGGYVCINGRPCKVIDLSVSKTGKHGHAKVSIVATDIFTGNRLEDQAPSTHNVEVPFVKTFTYSVLDIQPNEDPSLPSHLSLMDDEGESREDLDMPPDAALATQIKEQFDSGKEVLVVVVSAMGTEQVLQTKNAAEK | soluble
